Assay results published in article PMC6650551, “Identification of Dephospho-Coenzyme A (Dephospho-CoA) Kinase in Thermococcus kodakarensis and Elucidation of the Entire CoA Biosynthesis Pathway in Archaea” (mBio, 2019).

Key:
purified protein [1] = substrate: CC(C)(COP(=O)(O)OP(=O)(O)OC[C@H]1O[C@@H](n2cnc3c(N)ncnc32)[C@H](O)[C@@H]1O)[C@@H](O)C(=O)NCCC(=O)NCCS; test: purified protein; type: biochemical, Thermococcus kodakarensis; details: 5 mM GTP varied dephospho-CoA, 5 mM MgCl2, 300 mM KCl, 50 mM Bicine pH 8.0, 80 °C
purified protein [2] = substrate: Nc1nc2c(ncn2[C@@H]2O[C@H](COP(=O)(O)OP(=O)(O)OP(=O)(O)O)[C@@H](O)[C@H]2O)c(=O)[nH]1; test: purified protein; type: biochemical, Thermococcus kodakarensis; details: 1 mM dephospho-CoA, varied GTP, 5 mM MgCl2, 300 mM KCl, 50 mM Bicine pH 8.0, 80 °C

B1: TK1697 protein (Tk-DPCK) (Thermococcus kodakarensis KOD1) (protein)
chain: MKMFFRLTRELRDELKRPLGELVRGPIPEPYLKVRGELEKHPVVTVGDVVTENVLKIGVKPIIALYDLKTKRKEYSPEIEDTAVFLTVTNPPGTITKALLDTVRKAFGLAERGRNVHILVSGEEDLAAIPAVLYAPLGTLVLYGQPDEGVVLIKVTPECKRRCAKILASMEVVRDGD
notes: full-length gene in pET21a(+) (NdeI/EcoRI, own stop codon, untagged), expressed in E. coli BL21-CodonPlus(DE3)-RIL; calculated 19,657 Da
Km (purified protein [1]): 140 ± 20 µM
Vmax (purified protein [1]): 17 µmol/min/mg
kcat (purified protein [1]): 5.57 s⁻¹
kcat/Km (purified protein [1]): 40400 M⁻¹ s⁻¹
Km (purified protein [2]): 260 ± 60 µM
Vmax (purified protein [2]): 20.4 µmol/min/mg
kcat (purified protein [2]): 6.68 s⁻¹
kcat/Km (purified protein [2]): 25700 M⁻¹ s⁻¹
